The source of these data is patent US20070178491, “Compositions and Methods for Synthesizing Nucleic Acids” (INVITROGEN CORPORATION, published 2007).

Data set [1] has as its system AccuPrime Protein II (SsoSSB) (Sulfolobus solfataricus). The following applies: CITED Haseltine and Kowalczykowski 2002; about 3 orders of magnitude higher than AccuPrime protein I; cited from earlier work.
Data set [2] deals with T1, AccuPrime protein (AccuPrime Protein I; MjaSSB, Mja RPA SSB) (Methanococcus jannaschii, UniProt Q58559 Q58559:1-645).
T1 sequence: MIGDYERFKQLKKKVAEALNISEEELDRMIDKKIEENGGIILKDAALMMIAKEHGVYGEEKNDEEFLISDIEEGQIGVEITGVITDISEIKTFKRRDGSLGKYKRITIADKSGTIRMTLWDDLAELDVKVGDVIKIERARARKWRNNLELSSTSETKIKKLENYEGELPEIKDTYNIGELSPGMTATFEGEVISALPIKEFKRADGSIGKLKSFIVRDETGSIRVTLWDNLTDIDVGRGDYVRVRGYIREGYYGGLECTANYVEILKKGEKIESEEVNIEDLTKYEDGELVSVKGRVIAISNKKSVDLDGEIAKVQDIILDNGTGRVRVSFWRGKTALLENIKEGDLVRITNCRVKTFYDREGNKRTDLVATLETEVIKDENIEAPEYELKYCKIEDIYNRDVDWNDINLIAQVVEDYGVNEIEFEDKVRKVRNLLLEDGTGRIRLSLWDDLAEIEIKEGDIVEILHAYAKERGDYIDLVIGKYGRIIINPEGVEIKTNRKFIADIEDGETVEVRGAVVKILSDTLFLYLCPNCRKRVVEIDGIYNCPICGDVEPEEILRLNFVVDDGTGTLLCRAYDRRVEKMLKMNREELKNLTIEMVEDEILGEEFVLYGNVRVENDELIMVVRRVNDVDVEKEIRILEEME
Description: EMSA; 20 nM oligo, 0-40 nM protein; near-stoichiometric shift, super-shift, weak negative cooperativity; 20 mM Tris-HCl pH 8.4, 50 mM KCl, 1.5 mM MgCl2, 70 C; text calls it 84-mer or 86-mer. As to conditions: tags: expressed in E. coli BL21(DE3), Ni-NTA purified; label: 5'-32P. The protocol: Single stranded DNA binding. AccuPrime protein affinity for secondary structure of the single stranded DNA was tested with the 84 mer synthetic oligonucleotide KP_PALIN_cont: 5′-CTCCTGGATCGACTTCAGTCCGCTGATGATTAGATGTCGTCCTGGATCGACTTCACTCCGCACCCGCTACCAACAACAGTACCC-3′. The oligonucleotide was radiolabeled at the 5′ end in the same manner as the 5′ (ss) substrate for the exo-nuclease activity assay above with the oligonucleotide concentration at 5 μM.
Single stranded DNA binding. The binding affinity of AccuPrime protein to single stranded DNA (ssDNA) was measured using electrophoretic mobility shift assay (EMSA) on 6% horizontal polyacrylamide gel in TBE. The ssDNA molecules used in the assay were synthetic 86-mer oligonucleotides. The 5′ radiolabeled oligonucleotides were incubated with increasing amounts of the protein in 1×PCR buffer (20 mM Tris-HCl, pH 8.4, 50 mM KCl, 1.5 mM MgCl₂) at 70° C. for 5 min, and an aliquot of the reaction mix was loaded on the gel with currents on. The electrophoresis was continued for 1 hr and the gel was autoradiographed after dried.

Turning to single-stranded DNA (unspecified), the Kd (as a rule, the free concentration of one partner at which half of the binding sites on the other are occupied at equilibrium, for simple one-to-one binding) in data set [1] was 500 nM.

B1: KP_PALIN_cont (ssDNA)
DNA: CTCCTGGATCGACTTCAGTCCGCTGATGATTAGATGTCGTCCTGGATCGACTTCACTCCGCACCCGCTACCAACAACAGTACCC
On to B1, for which, in data set [2], the binding result is on record as “binds”.
